Source: patent US20080182978A1, “ANTI-NGF ANTIBODIES AND METHODS USING SAME” (RINAT NEUROSCIENCE CORP, priority 2002, published 2008)
Numbering of substitutions follows the chain as printed. Names and notes keep the numbering of the source. Blank lines part the entries; values can stand above or below the molecule they belong to.

Legend:
rat NGF = rat NGF (Rattus norvegicus, UniProt P25427); assay: Mouse E13.5 trigeminal neuron survival assay, rat NGF; assay type: cell-based; conditions: 1.5 or 15 pM rat NGF
Chain of rat NGF (P25427 122-241): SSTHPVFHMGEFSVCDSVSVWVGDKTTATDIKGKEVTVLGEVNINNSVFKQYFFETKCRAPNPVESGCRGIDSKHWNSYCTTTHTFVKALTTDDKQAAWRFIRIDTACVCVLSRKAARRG
Procedure: (§1) The ability of Fab E3 or full antibody E3 to block NGF activity was evaluated by measurement of the capacity of the antibody to inhibit NGF-dependent survival of mouse E13.5 trigeminal neurons in vitro. The trigeminal ganglion is comprised of cutaneous sensory neurons that innervate the facial region. The survival of mouse E13.5 trigeminal neurons is a sensitive assay to evaluate the NGF-blocking activity of anti-NGF antagonist antibodies because NGF is required to support survival of these neurons. For example, at saturating concentrations of NGF, the survival is close to 100% by 48 hours in culture. By contrast, less than 5% of the neurons survive by 48 hours in absence of NGF.
The survival assay was conducted as follows: time-mated pregnant Swiss Webster female mice were euthanized by CO2 inhalation. The uterine horns were removed and the embryos at embryonic stage E13.5 were extracted and decapitated. The trigeminal ganglia were dissected using electrolytically sharpened tungsten needles. The ganglia were then trypsinized, mechanically dissociated and plated at a density of 200-300 cells per well in defined, serum-free medium in 96-well plates coated with poly-L-ornithine and laminin. […]

human NGF [1] = molecular target: T1, human NGF (Homo sapiens, UniProt P01138); assay: Mouse E13.5 trigeminal neuron survival assay, human NGF; assay type: cell-based; conditions: 1.5 or 15 pM human NGF
T1 sequence (P01138 122-241): as the sequence (P25427 122-241) above, with T3S, V6I, M9R, T37M, A60D, E65D, T92M, D94G, A117V, G120A counted along it
Procedure: as §1
The survival assay was conducted as follows: time-mated pregnant Swiss Webster female mice were euthanized by CO2 inhalation. The uterine horns were removed and the embryos at embryonic stage E13.5 were extracted and decapitated. The trigeminal ganglia were dissected using electrolytically sharpened tungsten needles. The ganglia were then trypsinized, mechanically dissociated and plated at a density of 200-300 cells per well in defined, serum-free medium in 96-well plates coated with poly-L-ornithine and laminin.
After 48 hours in culture, the cells were subjected to an automated immunocytochemistry protocol performed on a Biomek FX liquid handling workstation (Beckman Coulter) as follows: fixation using 4% formaldehyde, 5% sucrose, and PBS; permeabilization using 0.3% Triton X-100 in PBS); blocking of unspecific binding sites using 5% normal goat serum, 0.11% BSA in PBS; and sequential incubation with a primary and secondary antibodies to detect neurons. The primary antibody was rabbit polyclonal antibody against the protein gene product […] (PGP9.5, Chemicon), an established neuronal phenotypic marker. The secondary antibody was Alexa Fluor 488 goat anti-rabbit (Molecular Probes), together with the nuclear dye Hoechst 33342 (Molecular Probes) to label the nuclei of all the cells present in the culture. […]

human NGF [2] = molecular target: T1, human NGF; assay: BIAcore affinity determination assay (kon, koff, KD of purified Fabs); assay type: binding; conditions: Fab on immobilized human NGF
Procedure: (§2) Affinities of anti-NGF Fabs and monoclonal antibodies were determined using the BIAcore300™ surface plasmon resonance (SPR) system (BIAcore, INC, Piscaway N.J.). CM5 chips were activated with N-ethyl-N′-(3-dimethylaminopropyl)-carbodimide hydrochloride (EDC) and N-hydroxysuccinimide (NHS) according to the supplier's instructions. Human NGF was diluted into 10 mM sodium acetate pH 4.0 and injected over the activated chip at a concentration of 0.005 mg/mL. Using variable flow time across the individual chip channels, two ranges of antigen density were achieved: 100-200 response units (RU) for detailed kinetic studies and 500-600 RU for screening assays. The chip was blocked with ethanolamine. […] HBS-EP buffer (0.01M HEPES, pH 7.4, 0.15 NaCl, 3 mM EDTA, 0.005% Surfactant […]) was used as running buffer for all the BIAcore assays.
Serial dilutions (0.1-10× estimated KD) of purified Fab samples were injected for 1 min at 100 μL/min and dissociation times of up to 2 h were allowed. The concentrations of the Fab proteins were determined by ELISA and/or SDS-PAGE electrophoresis using as a standard a Fab of known concentration (as determined by amino acid analysis). Kinetic association rates (kon) and dissociation rates (koff) were obtained simultaneously by fitting the data to a 1:1 Langmuir binding model (Karlsson, R. Roos, H. Fagerstam, L. Petersson, B. (1994). Methods Enzymology 6. 99-110) using the BIAevaluation program. Equilibrium dissociation constant (KD) values were calculated as koff/kon.
The binding affinities to human NGF of Fabs E3 and 3C were measured using BIAcore analysis according to the manufacturer's instructions and as described above, except that 100 RU NGF was used on chip to prevent a rebinding effect. Briefly, several concentrations of antibodies (Fabs) were injected for 2 minutes onto a CM5 chip with 100 RU of immobilized human NGF on it, and permitted to dissociate for 1800 seconds. Mouse antibody 911 (Fab) was analyzed as a control. Data was analyzed using BIAevaluation software following the manufacturer's instructions. E3 bound human NGF with a KD of approximately 0.07 nM (and with a kon of about 6.0e5 M-1s-1, and a koff of about 4.2e-5s-1).

human NGF [3] = molecular target: T1, human NGF; assay: BIAcore screening assay of Fab library clones (koff); assay type: binding
Procedure: Small scale expression in 96 wells plates was optimized for screening Fab libraries. Starting from E. coli transformed with a Fab library, colonies were picked to inoculate both a master plate (agar LB+Ampicillin (50 μg/ml)+2% Glucose) and a working plate (2 ml/well, 96 well/plate containing 1.5 mL of LB+Ampicillin (50 μg/ml)+2% Glucose). Both plates were grown at 30° C. for 8-12 hours. The master plate was stored at 4° C. and the cells from the working plate were pelleted at 5000 rpm and resuspended with 1 mL of LB+Ampicillin (50 μg/ml)+1 mM IPTG to induce expression of Fabs. Cells were harvested by centrifugation after 5 h expression time at 30° C., then resuspended in 500 μL of buffer HBS-EP ([…] buffer pH 7.4, 150 mM NaCl, 0.005% P20, 3 mM EDTA). Lysis of HBS-EP resuspended cells was attained by one cycle of freezing (−80° C.) then thawing at 37° C. Cell lysates were centrifuged at 5000 rpm for 30 min to separate cell debris from supernatants containing Fabs. The supernatants were then injected into the BIAcore plasmon resonance apparatus to obtain affinity information for each Fab. Clones expressing Fabs were rescued from the master plate to sequence the DNA and for large scale Fab production and detailed characterization as described below.
as §2
A screening BIAcore assay was optimized to determine the affinity of Fab clones from libraries. Supernatants of small culture lysates were injected at 50 μl/min for 2 min. Dissociation times of 10 to 15 minutes were used for determination of a single exponential dissociation rate (koff) using BIAevaluation software. […] Clones showing improved (slower) koff values were expressed at large scale and full kinetic parameters, kon and koff, were determined on purified protein. The assay was capable of detecting differences in affinity that were approximately 2-fold or larger.
For affinity screening experiments, each library was further paired with the corresponding CDR-grafted light or heavy chain (for example, the H1/H2 library was paired with CDR-grafted light chain), the antibody was expressed, and affinity to human NGF of the individual clones was screened using the BIACORE surface plasmon resonance (SPR) system (BIAcore, Inc. Piscataway, N.J.) according to the manufacturer's instructions and as described above. koff, kon and KD were determined. Antibody clones were ranked based on koff rates, since generally most variation in affinity is seen in koff rates, and further because koff rates are independent of antibody concentration.
20-80 clones from each small library were screened using BIAcore analysis as described herein. Samples were simultaneously analyzed by BIAcore for binding affinity to NGF in one channel of the BIAcore chip and for presence of Fab by binding to a penta-histag antibody in another channel of the sensor chip, to detect the his tag at the C terminus of the heavy chain. Clones that expressed protein were classified as having the same affinity, worse affinity, better affinity or no binding, using koff to classify: The results of this analysis are shown in Table 5.

[4] = Table 8: CDR L3 H3 combination mutations, H19-L129 template (H1H2L1L2 matured)

koff (human NGF [2]): about 1.4E-5 s^−1
koff (human NGF [3]; [4]): 1.4e-05 s⁻¹
B1: 3C: H19-L129 with CDR-L3 S91E, K92R and CDR-H3 Y101W, G103A (antibody, V domains shown)
VH: QVQLQESGPGLVKPSETLSLTCTVSGFSLIGYDLNWIRQPPGKGLEWIGIIWGDGTTDYNSAVKSRVTISKDTSKNQFSLKLSSVTAADTAVYYCARGGYWYATSYYFDYWGQGTLVTVS
VL: DIQMTQSPSSLSASVGDRVTITCRASQSISNNLNWYQQKPGKAPKLLIYYTSRFHSGVPSRFSGSGSGTDFTFTISSLQPEDIATYYCQQERTLPYTFGQGTKLEIKRT
blocking of rat NGF-dependent trigeminal neuron survival (rat NGF): strongly blocked
blocking of human NGF-dependent trigeminal neuron survival (human NGF [1]): strongly blocked

koff (human NGF [3]; Table 4: combination clone, mutations in CDRs H1, H2, L1, L2): 0.00011 s⁻¹
koff (human NGF [3]; [4]): 1.1 e-4 s-1
B2: H19-L129: combined clone with matured CDRs H1, H2, L1, L2 and grafted H3 and L3 (antibody, V domains shown)
VH: B1 VH with W101Y, A103G
VL: B1 VL with E91S, R92K
blocking of rat NGF-dependent trigeminal neuron survival (rat NGF): strongly blocked
blocking of human NGF-dependent trigeminal neuron survival (human NGF [1]): strongly blocked
